B1: YhcD (natural protein)
chain: DGIEIAAVDFDRETLKSLGVDPNISHYFSRSARFLPGEYSLIVSVNGEKKGNIATRFDENGDICLDQAFLQQAGLKIPSEEKNGCYDYILSYPGTTITPLPNQEALDIIVSPQAIIPIGLDLTNAATGGTAALLNYSLMSSRAEFSNGSSDYSQAALEGGININDWMLRSHQFLTQTNGTFSNQNSSTYLQRTFTDLKTLMRAGEVNLNNSVLEGASIYGIEIAPDNALQTSGSGVQVTGIANTSQARVEIRQQGVLIHSILVPAGAFTIPDVPVRNGNSDLNVTVVETDGSSHNYIVPSTLFNQHVESFQGYRFAIGRVDDDYDESPWVISASSGWNLTRWSAMNGGVIVAENYQAASIRSSLVPLPDLTVSSQISTSQDTKDSLQGQKYRLDANYNLPFSLGLTTSLTRSDRHYRELSEAIDDDYTDPTKSTYALGLNWSNSILGGFNISGYKTYSYDGDNDSSNLNINWNKAFKHATVSVNWQHQLSASENNEDDGDLFYVNISIPFGRSNTATLYTRHDDHKTHYGTGVMGVVSDEMSYYVNAERDHDERETSLNGSISSNLHYTQVSLAAGASGSDSRTYNGTMSGGIAVHDQGVTFSPWTINDTFAIAKMDNNIAGVRITSQAGPVWTDFRGNAVIPSIQPWRTSGVEIDTASLPKNVDIGNGTKMIKQGRGAVGKVGFSAITQRRALLNITLSDGKKLPRGVAIEDSEGNYLTTSVDDGVVFLNNIKPDMVLDIKDEQQSCRIHLTFPEDAPKDVFYETATGECQ
modifications: NHS ester fluorescent dye (in the MST assay only)
B2: NfrA (natural protein)
chain: DNIGTSAEELGLSDYRHFVIYPRLDKALKAQKNNDEATAIREFEYIHQQVPDNIPLTLYLAEAYRHFGHDDRARLLLEDQLKRHPGDARLERSLAAIPVEVKSVTTVEELLAQQKACDAAPTLRCRSEVGQNALRLAQLPVARAQLNDATFAASPEGKTLRTDLLQRAIYLKQWSQADTLYNEARQQNTLSAAERRQWFDVLLAGQLDDRILALQSQGIFTDPQSYITYATALAYRGEKARLQHYLIENKPLFTTDAQEKSWLYLLSKYSANPVQALANYTVQFADNRQYVVGATLPVLLKEGQYDAAQKLLATLPANEMLEERYAVSVATRNKAEALRLARLLYQQEPANLTRLDQLTWQLMQNEQSREAADLLLQRYPFQGDARVSQTLMARLASLLESHPYLATPAKVAILSKPLPLAEQRQWQSQLPGIADNCPAIVRLLGDMSPSYDAAAWNRLAKCYRDTLPGVALYAWLQAEQRQPSAWQHRAVAYQAYQVEDYATALAAWQKISLHDMSNEDLLAAANTAQAAGNGAARDRWLQQAEKRGLGSNALYWWLHAQRYIPGQPELALNDLTRSINIAPSANAYVARATIYRQRHNVPAAVSDLRAALELEPNNSNTQAALGYALWDSGDIAQSREMLEPAHKGLPDDPALIRQLAYVNQRLDDMPATQHYARLVIDDIDNQALITPLTPEQNQQRFNFRRLHEEVGRRWTFSFDSSIGLRSGAMSTANNNVGGAAPGKSYRSYGQLEAEYRIGRNMLLEGDLLSVYSRVFADTGENGVMMPVKNPMSGTGLRWKPLRDQIFFIAVEQQLPLNGQNGASDTMLRASASFFNGGKYSDEWHPNGSGWFAQNLYLDAAQYIRQDIQAWTADYRVSWHQKVANGQTIEPYAHVQDNGYRDKGTQGAQLGGVGVRWNIWTGETHYDAWPHKVSLGVEYQHTFKAINQRNGERNNAFLTIGVHW
modifications: NHS ester fluorescent dye (in the MST assay only)
B3: HtrE (natural protein)
chain: AELVEYDHTFLMGQNASNIDLSRYSEGNPAIPGVYDVSVYVNDQPIINQSITFVAIEGKKNAQACITLKNLLQFHINSPDINNEKAVLLARDETLGNCLNLTEIIPQASVRYDVNDQRLDIDVPQAWVMKNYQNYVDPSLWENGINAAMLSYNLNGYHSETPGRKNESIYAAFNGGMNLGAWRLRASGNYNWMTDSGSNYDFKNRYVQRDIASLRSQLILGESYTTGETFDSVSIRGIRLYSDSRMLPPTLASFAPIIHGVANTNAKVTITQGGYKIYETTVPPGAFVIDDLSPSGYGSDLIVTIEESDGSKRTFSQPFSSVVQMLRPGVGRWDISGGQVLKDDIQDEPNLFQASYYYGLNNYLTGYTGIQITDNNYTAGLLGLGLNTSVGAFSFDVTHSNVRIPDDKTYQGQSYRVSWNKLFEETSTSLNIAAYRYSTQNYLGLNDALTLIDEVKHPEQDLEPKSMRNYSRMKNQVTVSINQPLKFEKKDYGSFYLSGSWSDYWASGQNRSNYSIGYSNSTSWGSYSVSAQRSWNEDGDTDDSVYLSFTIPIEKLLGTEQRTSGFQSIDTQISSDFKGNNQLNVSSSGYSDNARVSYSVNTGYTMNKASKDLSYVGGYASYESPWGTLAGSISANSDNSRQVSLSTDGGFVLHSGGLTFSNDSFSDSDTLAVVQAPGAQGARINYGNSTIDRWGYGVTSALSPYHENRIALDINDLENDVELKSTSAVAVPRQGSVVFADFETVQGQSAIMNITRSDGKNIPFAADIYDEQGNVIGNVGQGGQAFVRGIEQQGNISIKWLEQSKPVSCLAHYQQSPEAEKIAQSIILNGIRCQIQ
modifications: NHS ester fluorescent dye (in the MST assay only)

Target: human complement C3 (human)
Sequence (chain, as listed by the source, chain 1 of 2): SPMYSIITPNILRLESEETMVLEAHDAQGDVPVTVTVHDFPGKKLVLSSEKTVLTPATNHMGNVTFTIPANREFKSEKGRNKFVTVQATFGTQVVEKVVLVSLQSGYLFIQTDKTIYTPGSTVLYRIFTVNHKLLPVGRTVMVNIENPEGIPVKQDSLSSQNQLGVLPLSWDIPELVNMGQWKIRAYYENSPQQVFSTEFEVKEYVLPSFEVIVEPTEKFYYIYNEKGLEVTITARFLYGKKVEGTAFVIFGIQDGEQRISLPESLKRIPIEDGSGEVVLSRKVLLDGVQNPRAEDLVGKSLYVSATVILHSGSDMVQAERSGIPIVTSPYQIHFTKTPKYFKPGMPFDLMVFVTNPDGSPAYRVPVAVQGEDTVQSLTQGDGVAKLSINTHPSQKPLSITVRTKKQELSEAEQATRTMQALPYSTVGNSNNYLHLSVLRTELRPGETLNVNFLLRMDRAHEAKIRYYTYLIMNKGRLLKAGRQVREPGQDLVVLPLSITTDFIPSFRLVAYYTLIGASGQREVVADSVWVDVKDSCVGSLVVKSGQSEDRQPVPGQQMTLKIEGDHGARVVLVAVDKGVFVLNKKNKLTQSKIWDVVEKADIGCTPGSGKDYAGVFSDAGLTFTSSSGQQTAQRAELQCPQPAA
Sequence (chain, as listed by the source, chain 2 of 2): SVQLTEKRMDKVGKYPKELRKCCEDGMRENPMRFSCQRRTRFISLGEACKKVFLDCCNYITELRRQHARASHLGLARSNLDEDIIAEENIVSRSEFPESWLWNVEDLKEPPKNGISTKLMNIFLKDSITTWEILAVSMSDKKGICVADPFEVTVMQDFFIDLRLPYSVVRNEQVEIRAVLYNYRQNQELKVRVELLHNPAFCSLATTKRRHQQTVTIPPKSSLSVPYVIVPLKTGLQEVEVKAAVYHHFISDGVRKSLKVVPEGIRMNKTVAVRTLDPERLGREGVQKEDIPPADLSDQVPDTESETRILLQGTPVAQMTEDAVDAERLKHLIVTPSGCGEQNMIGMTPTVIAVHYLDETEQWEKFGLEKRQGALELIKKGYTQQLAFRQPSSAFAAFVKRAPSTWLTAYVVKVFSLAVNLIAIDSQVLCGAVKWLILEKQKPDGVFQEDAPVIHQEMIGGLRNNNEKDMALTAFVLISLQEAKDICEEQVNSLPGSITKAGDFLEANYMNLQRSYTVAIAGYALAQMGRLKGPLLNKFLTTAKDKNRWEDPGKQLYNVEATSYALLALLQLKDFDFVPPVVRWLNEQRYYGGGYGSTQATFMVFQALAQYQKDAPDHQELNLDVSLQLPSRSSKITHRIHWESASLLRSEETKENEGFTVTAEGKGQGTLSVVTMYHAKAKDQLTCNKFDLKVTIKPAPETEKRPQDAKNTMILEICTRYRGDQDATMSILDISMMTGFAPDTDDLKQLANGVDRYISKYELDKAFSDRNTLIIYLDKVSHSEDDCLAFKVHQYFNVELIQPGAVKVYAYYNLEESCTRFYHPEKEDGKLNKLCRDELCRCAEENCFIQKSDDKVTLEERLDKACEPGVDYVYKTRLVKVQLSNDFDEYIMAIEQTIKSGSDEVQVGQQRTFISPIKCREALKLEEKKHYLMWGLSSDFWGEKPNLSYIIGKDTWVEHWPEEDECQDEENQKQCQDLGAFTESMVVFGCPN
Assay: MST

Row | Binder | Kd [µM]
1 | B1 | 8.9
2 | B2 | 1.3
3 | B3 | 5.4
